The data set is described as follows: soluble on expression in E. coli; label from the status in PepcDB or PDB records.
In the case of “MRIGIVCPYSFDAPGGVQAHVLDLAEKFISQGHHVEVLGPASESTQLPDFVTRGGASLPIPYNGSVARLSFGPSTFIRARDFINRGQFDVLHIHEPNSPSFSMAALKVARGPIVATYHASSNRSLALKFALPFLRGQLEKIRGGIAVSEMARRWQVEMLGGDPILIPNGVETSQFELDKKPLWSGRIPEIVFLGRLDEHRKGLDILLRAVDRLDHEVRVTVIGGGTHPPAPRIDFVGRVSDEEKAEILGRADIYVAPNRGGESFGIVLVEAMAAGCVVVASDLEAFSAVCDAQSSQPSGILFRNGDADDLASTLRNVIENPKFGQELVTSGTQRAKEFDWDNVSKEIMRVYETVCDGTTVTAA”, the “soluble on expression in E. coli” value is “not soluble”.
The same measure for “MNIAKIVREAREQSRLTTLDFATGIFDEFIQLHGDRSFRDDGAVVGGIGWLGDQAVTVVGIQKGKSLQDNLKRNFGQPHPEGYRKALRLMKQAEKFGRPVVTFINTAGAYPGVGAEERGQGEAIARNLMEMSDLKVPIIAIIIGEGGSGGALALAVADRVWMLENSIYAILSPEGFASILWKDGTRAMEAAELMKITSHELLEMDVVDKVISEIGLSSKELIKSVKKELQTELARLSQKPLEELLEERYQRFRKY”: “not soluble”; for “MSLTDPLRFVLVPKVVHPWFDKVNDGAKAAAEMLTTTTGRKVTVEYRAPQKADVVEQNDIIARSIATRPDGIFVDLLDEKGNRAVLEEAQEQGIPVTVFDSVAPEGMNLTSIGNDFCEQATIASTRLVELMGGKGEVAIMMGVPTAPNHAIRAKCHEQTFAKYPDIKLVATGIDNDSIETAQKQAAAIMQAHPNLKGWVASDAAGPIGIGQAIKEAGKVGKVFEVGLDDLPDLLALIKEGVVDSSSSTKPEMQGYWAVIATWQKAMGMPTPKYIDTGIAVITKESLAKEGHHHHHH”: “soluble”.
As to “MINVSDLTQKLPEGSNAGVIAKNINQNQIIADYNGSTFMLPASTQKVFTAVAAKLALGDQFQFETALLSNGKIQNGNLDGNLIVSFTGDPDLTRGQLYSLLAELKKQGIKKINGDLVLDTSVFSSHDRGLGWIWNDLTMCFNSPPAAANIDNNCFYAELDANKNPGEIVKINVPAQFPIQVFGQVYVADSNEAPYCQLDVVVHDNNRYQVKGCLARQYKPFGLSFAVQNTDAYAAAIIQRQLRKLGIEFNGKVLLPQKPQQGQLLAKHLSKPLPDLLKKMMKKSDNQIADSLFRAVAFNYYKRPASFQLGTLAVKSILQKQGIRFGNSILADGSGLSRHNLVAPKTMLSVLEYIAKNEDKLHLMETFPIAGVDGTISGRGGLISPPLVKNVIAKTGSLKGVYNLAGFMTNARGEKVAFVQFINGYSTGDLESKTKRAPLVQFERNLYNELYKY”, the “soluble on expression in E. coli” value is recorded as “soluble”.
Regarding “MGSDKIHHHHHHMTENQTAHVRALILDATPLITQSYTHYQNYAQSFYTTPTVFQEIKDAQARKNLEIWQSLGTLKLVHPSENSIAKVSTFAKLTGDYSVLSANDLHILALTYELEIKLNNGDWRLRKKPGDALDASKADVGTDGKQKLTEDNKKEEDSESVPKKKNKRRGGKKQKAKREAREAREAENANLELESKAEEHVEEAGSKEQICNDENIKESSDLNEVFEDADDDGDWITPENLTEAIIKDSGEDTTGSLGVEASEEDRHVALNRPENQVALATGDFAVQNVALQMNLNLMNFMSGLKIKRIRNYMLRCHACFKIFPLPKDGKPKHFCASCGGQGTLLRCAVSVDSRTGNVTPHLKSNFQWNNRGNRYSVASPLSKNSQKRYGKKGHVHSKPQENVILREDQKEYEKVIKQEEWTRRHNEKILNNWIGGGSADNYISPFAITGLKQHNVRIGKGRYVNSSKRRS”, the “soluble on expression in E. coli” value is on record as “not soluble”.
With “MSLVKTYAFGFPKLGEKREFKRLLENYWKGKISQEELIKGMEELNLWRANLYRENVEIIPSNELSYYDFMLDTTVMVGAIPSRFGEYRGLDTYFEMARGKNALELTKWFNTNYHYLVPELEGENFKLLINRPLEDYKFFKEKGINTVPHVIGLFTFLKLSKAPKRVEEEGLPVIILEKLDTKERLEKFTKALLPVYKELLESLKNEGVNRVHFEEPALVTDLEDYDWEILNEIYSELSKVGVDLGILTYYDSVSDYDKFVNLPVKALHFDLVSNEENLKNIKEKGFPEDKELIAGIINGRQPWRANLREKVKLLEELLKVSANLVVSNSCPLYHLPVTVEPEDELPEGLKERLSFAKEKLREIRLIKEALEGKEEALREVESSEKVMTAVFAQNPEVRRRLASLSEKDFQRELPYKERDKIQRDILKLPLFPTTTIGSFPQTEDVRKMRTAYRTGKISEEEYKNFIKQKIKYAIEVQEDIGLDVLVHGEFERSDMVEYFAIKLDGIATTKHGWVLSYGSRVYRPPIIYGDVSRPAPMTLEEITYAQSLTNKPVKGMLTGPVTILNWSYYREDVPKREIAYQIALALLDEVKDLENAGIKVIQIDEPAFREGAPLKKRDWPEYFDWAVKAFRLASRAKPETQIHTHMCYSEFNEIIEYIYQMDFDVISIEASRSKGEIIEVFEKFKGWDRQIGIGVYDIHSPAIPTKEEMKAIMLRAMKVLPKELLWVNPDCGLKTRRWEEVIPALRNMVDMAKELREEVGVKVEGHHHHHH”, the “soluble on expression in E. coli” value is “soluble”.
For “MSLDIADVAKRTGVPASTLRYYEKKGLLKSLAGRGQRRQFAADVADRLALIALGQAAGFSLDEVGAMLVDLQVDRQMLMAKADELDARIKRLQAMSKGLRHAAQCPEKDHLACPKFQQLMKLSAAGALGEKQARTKAFVTDEGHHHHHH” the value was “soluble”.
The same measure for “MSVEPNHYLEITRSHVHQIYRELETSGKVITVDLVRKPYYDVDEDNKTLLQVFREHNEQSRKLIGKDFISKTVQRYETTTRYLEEFIKKEYQLSDIALNNLEANFISKFDAFLKIEKGCAQNSAITRLKNLKKIIRIALENDWIKKDPFAYYRFKLKETYPEFLTMDEIKIILAKEFTIKRVEQVRDVFIFCSYTGLAFSDVKDLSPEHLLKDNKGELWIKIFLSFHSSVFSSKNLHRLNTSLAKSMIQIKF”: “not soluble”.
For “MSLQSDMLAQSDMLACREMIKEGSHTFHAASKVLPRRISDPAIALYAFCRVADDAVDLGLDRAAAVELLKDRLDRACRGVPRAYPSDRAFADVVARFSIPPAIPEALIEGLEWDAQGRRFETLSDLYSYCARVAGTVGVMMTLVMGQRKPDIVARACDLGCAMQLTNIARDIGEDARNGRIYMPLSWMREAGLDPETWLANPKFTPEIASIVKRLIDTADALYDRATLGIANLPRSCRPGIFAARALYAEIGREVERSGLDSVSSRAVVSTGRKLAVLARLLAFQETEWAPAKYLPAKFGDMEETKFLVDAVIAHPVREGHHHHHH” the value was “soluble”.
Consider “MQERILFGTYTKKTSQGIYQGTLDTTAKTLTNDGLLAATQNPTYLALSAKDCLYSVDKEDDEGGIAAWQIDGQTAHKLNTVVAPGTPPAYVAVDEARQLVYSANYHKGTAEVMKIAADGALTLTDTVQHSGHGPRPEQDGSHIHYTDLTPDNRLAVIDLGSDKVYVYNVSDAGQLSEQSVLTMEAGFGPRHLVFSPDGQYAFLAGELSSQIASLKYDAQTGAFTQLGIVKTIPADYTAHNGAAAIRLSHDGHFLYVSNRGYNTLAVFAVTADGHLTLIQQISTEGDFPRDFDLDPTEAFVVVVNQNTDNATLYARDLTSGKLSLLQKDVTVPEGVCVRFLEHHHHHH”, for which the “soluble on expression in E. coli” value is reported as “soluble”.
Turning to “MSVKHHDVIIIGAGAAGLMCAATAGYRGRDVLVLDNAKQAGRKILISGGGRCNFTNLKVEPANFICGNPHFVKSALARYPSQQFIELVERHGIEYHERDHGQLFCNDSAKEIVTMLLTECEWAGVSIKLRTDILSVGKNEAGRFELNTSNGELSCDSLVIATGGLSMPKLGATPYGYQLAEQFGLKVLPTHAGLVPFTWHSEDKIRFEPLSGIAVPSRITAKDGTAFSEALLFTHRGLSGPAILQISNYWKAGETIKINLLPNMDAAQAIEQQLAAHPKQSLRNTLSLWLPKRLVEVLFDEVLLNKALNQLVHAERAKLVDDLHRWTVLMNGTEGYRTAEVTLGGVDTHELSSKTMEAIKVPGLFFIGEVMDVSGWLGGFNFQWAWASGVAAGKAV”, the “soluble on expression in E. coli” value is given as “not soluble”.
For “MGSDKIHHHHHHMKNTELEQLINEKLNSAAISDYAPNGLQVEGKETVQKIVTGVTASQALLDEAVRLGADAVIVHHGYFWKGESPVIRGMKRNRLKTLLANDINLYGWHLPLDAHPELGNNAQLAALLGITVMGEIEPLVPWGELTMPVPGLELASWIEARLGRKPLWCGDTGPEVVQRVAWCTGGGQSFIDSAARFGVDAFITGEVSEQTIHSAREQGLHFYAAGHHATERGGIRALSEWLNENTDLDVTFIDIPNPA” the value was “not soluble”; for “MSLSHAETIKLGMSIPLSGSGANWGKGSEWLCAKAAEEIKAAGGVKVQGKVYDFECVGYDNKYNAAEGAKVAQALVSRDGVKYVAGSIGVAPVRALQSLTERRGVLLFTAAWGNSIKGPKFPLTFTQMNSVNEISEPMIAHVKKLHPEIKTVVLLNPNDATGQETEKVAKAAWEKNGVKVLASDWYERGTSEFQPIAAKLNSLKPDLVDLASTPPADAGLVFRELKALGWNGVKVVEVGTGADGLLATGKDAVDGTYLGAAVAVDGLSAHQKALNDGVKKVTGENINSVQIGFYDSVYAIKAAMEKAQSVDPQQVAKVMPDVKFQSFFGEVDFGGKSVYGSDQQMQLPVIITQISGTALKEVGRVQKEGHHHHHH”, “soluble”; for “MTSAAEITAAVRQLYNTYPFPPEPLLDEPPPGYNWRWSWPAAYSFCTGRYPSQLDVAILDAGCGTGVGTEYLAHLNPQAKITALDLSEAALAIACERCRRSGATNVQFHHLSLEEVAQLGQTFQMINCVGVLHHLPEPQRGIQALADVLAPGGIVHIFVYGEYGRWEIKLMQQAIALLQGSDRHNYREGVAIGRQLFAALPENNRLKKREQERWSLENQRDECFADMYVHPQEIDYTIASLFELIRASGLEFIGFSNPQVWQLERLLGSQPELLQRAQQLDPIQQYQLIECLDPEAMTHFEFFLAKPPLPRHDWAADRELLAAIPWRHPCIDGWPGACVFNCHYEVIHLNQAEQEFLNAASGKATVAELLAQQPDFNLAEVRSLLARHLLLLGVKE”, “not soluble”.
The same measure for “MGGSHHHHHHGMASALELLSPQSPFRVDRGEHLPFLVKGARYTLVPAGQEGGGQTWRPLPGTTSPEDSSHLHRGQKKGAALGMAVYPYNCQAHAP”: “not soluble”.
Turning to “MHGESPIKRRESRKIWVGSVPVGGDAPIAVQSMTNSDTNDVAATVAQINRLEAAGVDIVRISVPDMDAAEAFGRIKQLVKVPLVADIHFDYRIALRVAELGVDCLRINPGNIGREDRVRAVVDAARDRGIPIRIGVNAGSLEKDLQKKYGEPTPEALVESALRHVEHLERLNFKDFKVSVKASDVFMAVAAYRLLAKQIVQPLHLGITEAGGLRSGTVKSAVGLGMLLAEGIGDTIRISLAADPVEEVKVGYDILKSLRLRSRGINFIACPSCSRQNFDVVKTMNELEGRLEDLLVPLDVAVIGCVVNGPGEAKEAHIGLTGGTPNLIYIDGKPAQKLTNDNLVDELERLIREKAAEKTAADASVIVRGLEHHHHHH”, the “soluble on expression in E. coli” value is on record as “not soluble”.
For “MSMENFAQLLEESFTLQEMNPGEVITAEVVAIDQNFVTVNAGLKSESLIDVAEFKNAQGEIEVKVGDFVTVTIESVENGFGETKLSREKAKRAADWIALEEAMENGDILSGIINGKVKGGLTVMISSIRAFLPGSLVDVRPVKDTSHFEGKEIEFKVIKLDKKRNNVVVSRRAVLEATLGEERKALLENLQEGSVIKGIVKNITDYGAFVDLGGIDGLLHITDLAWRRVKHPSEVLEVGQEVEAKVLKFDQEKQRVSLGMKQLGEDPWSGLTRRYPQGTRLFGKVSNLTDYGAFVEIEQGIEGLVHVSEMDWTNKNVHPSKVVQLGDEVEVMILEIDEGRRRISLGMKQCQANPWEEFAANHNKGDKISGAVKSITDFGVFVGLPGGIDGLVHLSDLSWTESGEEAVRKYKKGEEVEAVVLAIDVEKERISLGIKQLEGDPFGNFISVNDKGSLVKGSVKSVDAKGAVIALSDEVEGYLPASEFAADRVEDLTTKLKEGDEVEAVIVTVDRKNRSIKLSVKAKDAKESREALNSVNAAANANAGTTSLGDLLKAKLSGEQELEHHHHHH” the value was “soluble”.

Source of the values: the DeepSol protein solubility set.
